# Paper PMC7905540
# Legend:
# [1] = tested on: XreR1 (Photorhabdus luminescens DJC); experiment: SPR; conditions: SPR (Biacore 3000, SA chip), proteins in dialysis buffer: 50 mM Tris/HCl pH 7.5, 10% glycerol, 500 mM NaCl, 2 mM beta-mercaptoethanol, 25 C, 30 ul/min, 1:1 …
# [2] = tested on: T1, XreR2 (Photorhabdus luminescens DJC), ORF:b2ab5127; experiment: MST; conditions: SPR (Biacore 3000, SA chip), proteins in dialysis buffer: 50 mM Tris/HCl pH 7.5, 10% glycerol, 500 mM NaCl, 2 mM beta-mercaptoethanol; 25 C; 30 ul/min; 1:1 …
# T1 sequence: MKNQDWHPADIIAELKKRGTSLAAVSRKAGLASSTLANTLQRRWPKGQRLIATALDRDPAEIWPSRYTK
# [3] = tested on: T2, XreR1 (Photorhabdus luminescens DJC), ORF:d6b45183; experiment: SPR; conditions: SPR (Biacore 3000, SA chip), proteins in dialysis buffer: 50 mM Tris/HCl pH 7.5, 10% glycerol, 500 mM NaCl, 2 mM beta-mercaptoethanol; 25 C; 30 ul/min; 1:1 …
# T2 sequence: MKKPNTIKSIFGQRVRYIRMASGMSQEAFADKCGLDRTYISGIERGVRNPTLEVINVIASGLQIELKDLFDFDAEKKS
# [4] = tested on: T1, XreR2 (Photorhabdus luminescens DJC), ORF:b2ab5127; experiment: SPR; conditions: SPR (Biacore 3000, SA chip), proteins in dialysis buffer: 50 mM Tris/HCl pH 7.5, 10% glycerol, 500 mM NaCl, 2 mM beta-mercaptoethanol; 25 C; 30 ul/min; 1:1 …
# [5] = tested on: T2, XreR1 (Photorhabdus luminescens DJC), ORF:d6b45183; experiment: MST; conditions: SPR (Biacore 3000, SA chip), proteins in dialysis buffer: 50 mM Tris/HCl pH 7.5, 10% glycerol, 500 mM NaCl, 2 mM beta-mercaptoethanol; 25 C; 30 ul/min; 1:1 …
substance,measurement,setting,value
PxreR2,Kd,"[1]; ka printed 2.8E+05 1/Ms, kd 8.9E-4 1/s (ratio inconsistent with the printed KD)",0.3 nM
GTTTCATAGCACACCTCAGAAACACACTTAAAATGAACATGAGGAAATGGATTGCGAGCAGGAAAAGATAAATGCAAACAGCTATAAGTAATCATTACTCTTACCGAATGATATAAAGTAGATTGGAGCAGCTTATCTCATTGATAAACTACTCCACTTTAATTTACAGCCAC (double strand) [PpTAS],binding,[2],binds
same,binding,[3],no binding
same,binding,[4],binds
GGGTGCCAGTCTTGATTTTTCATTAATTAATCCTCCGTGTTACGGATAACTTTGATATGAAAAGGTAAGTCGTTACATAGTAGACTATAAGTCACATATGATAACATAACTTACCATAAAAAGTGACTCATAGTCCGTGGTCTGATAAGTAACATCATTCGATACTTATCAG (double strand) [PxreR2],binding,[5],binds
same,binding,[2],binds
same,Kd,[3],0.3 nM
same,binding,[4],binds
PxreR1,Kd,"[1]; ka 4.5E+06 1/Ms, kd 2.9E-3 1/s",0.6 nM
